The values below come from publication PMC11758377 (2026).

This experiment has as its target H3K4me3 peptide (Homo sapiens, UniProt P68431). In words: MST.

B1: BPTF-PHD PHD (protein)
chain: KLYCICKTPYDESKFYIGCDRCQNWYHGRCVGILQSEAELIDEYVCPQCQST
For orientation: Kd means the concentration at which binding is half-saturated. B1 yielded a Kd of 2900 nM.
